According to patent publication US20050244915:
Where a chain is given by its changes, count along the chain named.

Legend:
GST HIF-1α 775-826 N803A = target: T1, GST HIF-1α 775-826 N803A
T1 chain: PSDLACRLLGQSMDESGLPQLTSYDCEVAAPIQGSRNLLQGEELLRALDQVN

[1] = target: T2, His6-HIF-1α 344-503, Q16665
T2 chain: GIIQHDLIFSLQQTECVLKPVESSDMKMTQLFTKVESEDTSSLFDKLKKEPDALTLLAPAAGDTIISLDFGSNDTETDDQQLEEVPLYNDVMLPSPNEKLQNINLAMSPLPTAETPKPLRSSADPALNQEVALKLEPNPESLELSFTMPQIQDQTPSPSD

[2] = target: GST HIF-1α 775-826 N803Q, Q16665
[3] = target: GST HIF-1α 775-826 [GST: P08515]
HIF-1α 775-826, Q16665 = target: T3, HIF-1α 775-826, Q16665
T3 chain: T1 chain with A29N

[4] = target: GST HIF-1α 775-826 N803D, Q16665
[5] = target: T4, His6-HIF-1α 530-698, Q16665
T4 chain: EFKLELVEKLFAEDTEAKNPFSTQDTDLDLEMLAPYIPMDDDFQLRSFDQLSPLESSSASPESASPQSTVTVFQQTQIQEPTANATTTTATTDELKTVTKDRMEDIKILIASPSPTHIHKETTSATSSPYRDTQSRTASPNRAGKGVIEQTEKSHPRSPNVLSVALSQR

[6] = target: GST HIF-1α 775-826 N803E, Q16665
[7] = target: GST HIF-1α 577-826, Q16665
[8] = target: T5, GST HIF-1α 530-652, Q16665
T5 chain: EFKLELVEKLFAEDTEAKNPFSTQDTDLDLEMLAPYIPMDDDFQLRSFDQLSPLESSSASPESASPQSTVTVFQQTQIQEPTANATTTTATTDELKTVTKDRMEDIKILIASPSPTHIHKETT

B1: Factor Inhibiting HIF (FIH), recombinant (protein)
chain: MAATAAEAVASGSGEPREEAGALGPAWDESQLRSYSFPTRPIPRLSQSDPRAEELIENEEPVVLTDTNLVYPALKWDLEYLQENIGNGDFSVYSASTHKFLYYDEKKMANFQNFKPRSNREEMKFHEFVEKLQDIQQRGGEERLYLQQTLNDTVGRKIVMDFLGFNWNWINKQQGKRGWGQLTSNLLLIGMEGNVTPAHYDEQQNFFAQIKGYKRCILFPPDQFECLYPYPVHHPCDRQSQVDFDNPDYERFPNFQNVVGYETVVGPGDVLYIPMYWWHHIESLLNGGITITVNFWYKGAPTPKRIEYPLKAHQKVAIMRNIEKMLGEALGNPQEVGPLLNTMIKGRYN
For B1, the % activity relative to 775-826 peptide (GST HIF-1α 775-826 N803A) was less than 0.01%, the CO2 released (GST HIF-1α 775-826 N803A) was less than 0.001 nmol and the % activity relative to 775-826 peptide [1] was less than 0.01%. The CO2 released [1] was less than 0.001 nmol, the % activity relative to 775-826 peptide [2] was less than 0.01% and the CO2 released [2] was less than 0.001 nmol. The % activity relative to 775-826 peptide [3] was 96%, the CO2 released [3] was 2.7 nmol and the % activity relative to 775-826 peptide (HIF-1α 775-826, Q16665) was 100%. The CO2 released (HIF-1α 775-826, Q16665) was 2.8 nmol, the “Km(peptide), 2-OG turnover assay” value (HIF-1α 775-826, Q16665) was “Km(peptide)=10 µM” and the “Vmax, 2-OG turnover assay” value (HIF-1α 775-826, Q16665) was “Vmax=0.3 µmol/min/mg”. For the same protein, the “mass increase of the substrate after reaction (mass spectrometry)” value (HIF-1α 775-826, Q16665) was “an increase in mass of 16Da was observed after HPLC isolation of product”, the % activity relative to 775-826 peptide [4] was 7% and the CO2 released [4] was 0.22 nmol. For the same protein, the % activity relative to 775-826 peptide [5] was less than 0.01%, the CO2 released [5] was less than 0.001 nmol and the % activity relative to 775-826 peptide [6] was less than 0.01%. For the same protein, the CO2 released [6] was less than 0.001 nmol, the % activity relative to 775-826 peptide [7] was 67% and the CO2 released [7] was 0.81 nmol. It also gave a % activity relative to 775-826 peptide [8] of 1.8% and a CO2 released [8] of 0.05 nmol.
